This note sets out measurements from article PMC2518714.

The test addresses T1, CD9 (wild type) (human (endogenous in PC3)), P21926.
T1 chain: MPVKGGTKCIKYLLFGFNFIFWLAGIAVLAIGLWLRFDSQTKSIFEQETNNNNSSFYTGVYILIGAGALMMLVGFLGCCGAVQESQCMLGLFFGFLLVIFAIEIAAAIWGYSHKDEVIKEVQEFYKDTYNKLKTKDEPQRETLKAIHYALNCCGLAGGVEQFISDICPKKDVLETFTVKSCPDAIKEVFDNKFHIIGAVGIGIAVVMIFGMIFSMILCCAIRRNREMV
Put plainly: single-molecule codiffusion. The following applies: remark: other sources report otherwise.

B1: CD9 (wild type), P21926 1-228 (natural protein)
chain: MPVKGGTKCIKYLLFGFNFIFWLAGIAVLAIGLWLRFDSQTKSIFEQETNNNNSSFYTGVYILIGAGALMMLVGFLGCCGAVQESQCMLGLFFGFLLVIFAIEIAAAIWGYSHKDEVIKEVQEFYKDTYNKLKTKDEPQRETLKAIHYALNCCGLAGGVEQFISDICPKKDVLETFTVKSCPDAIKEVFDNKFHIIGAVGIGIAVVMIFGMIFSMILCCAIRRNREMV
modifications: here or on the partner: palmitoylated (sites not given); palmitoylated (sites not given)
B1 returned a percent of Brownian and mixed trajectories with codiffusing molecules of 15%; a percent of possible pairs dynamically colocalized of 5%.
